According to US20220048991A1 (BIOND BIOLOGICS, published 2022):

T1: PIRB (UniProt P97484 25-642, limits assumed)
T1 sequence (looked up): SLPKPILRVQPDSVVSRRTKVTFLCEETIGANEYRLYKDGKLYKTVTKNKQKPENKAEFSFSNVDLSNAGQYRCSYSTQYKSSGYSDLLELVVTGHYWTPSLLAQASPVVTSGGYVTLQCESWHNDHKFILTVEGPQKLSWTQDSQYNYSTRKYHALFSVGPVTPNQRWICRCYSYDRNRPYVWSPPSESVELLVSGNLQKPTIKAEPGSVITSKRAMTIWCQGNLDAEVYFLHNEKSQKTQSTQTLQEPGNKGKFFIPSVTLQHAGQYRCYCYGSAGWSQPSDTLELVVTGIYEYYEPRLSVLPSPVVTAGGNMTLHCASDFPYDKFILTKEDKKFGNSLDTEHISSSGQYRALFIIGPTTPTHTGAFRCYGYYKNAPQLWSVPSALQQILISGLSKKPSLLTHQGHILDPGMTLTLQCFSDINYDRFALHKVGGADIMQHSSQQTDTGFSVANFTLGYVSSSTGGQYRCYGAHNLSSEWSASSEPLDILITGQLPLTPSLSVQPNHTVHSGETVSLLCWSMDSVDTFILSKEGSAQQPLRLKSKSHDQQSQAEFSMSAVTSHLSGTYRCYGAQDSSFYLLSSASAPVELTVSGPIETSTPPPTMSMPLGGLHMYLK


What was measured:
[1] = biological target: T2, recombinant ILT2 (human) (human, UniProt Q8NHL6 24-461); assay: binding ELISA, hILT2-Fc; negative control
T2 construct: also called recombinant ILT2 peptide; ILT2 protein
T2 sequence (Q8NHL6 24-461 limits assumed): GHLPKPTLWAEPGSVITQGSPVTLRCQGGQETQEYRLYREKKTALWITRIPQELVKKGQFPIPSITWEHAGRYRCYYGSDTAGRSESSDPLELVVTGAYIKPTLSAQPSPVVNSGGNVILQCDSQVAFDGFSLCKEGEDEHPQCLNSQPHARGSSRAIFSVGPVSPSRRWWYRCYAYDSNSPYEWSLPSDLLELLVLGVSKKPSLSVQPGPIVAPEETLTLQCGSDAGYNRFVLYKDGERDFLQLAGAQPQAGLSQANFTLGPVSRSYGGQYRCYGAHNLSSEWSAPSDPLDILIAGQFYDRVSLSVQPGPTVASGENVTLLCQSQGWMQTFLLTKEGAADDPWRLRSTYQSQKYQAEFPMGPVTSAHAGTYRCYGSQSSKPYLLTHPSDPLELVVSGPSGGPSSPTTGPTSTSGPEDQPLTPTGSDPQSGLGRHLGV

[2] = biological target: T1, PIRB; assay: binding ELISA, column PIRB; negative control
[3] = biological target: T3, LILRA1 (UniProt O75019 17-461, limits assumed); assay: binding ELISA, column hLILRA1-His; negative control
T3 sequence (O75019 17-461 limits assumed): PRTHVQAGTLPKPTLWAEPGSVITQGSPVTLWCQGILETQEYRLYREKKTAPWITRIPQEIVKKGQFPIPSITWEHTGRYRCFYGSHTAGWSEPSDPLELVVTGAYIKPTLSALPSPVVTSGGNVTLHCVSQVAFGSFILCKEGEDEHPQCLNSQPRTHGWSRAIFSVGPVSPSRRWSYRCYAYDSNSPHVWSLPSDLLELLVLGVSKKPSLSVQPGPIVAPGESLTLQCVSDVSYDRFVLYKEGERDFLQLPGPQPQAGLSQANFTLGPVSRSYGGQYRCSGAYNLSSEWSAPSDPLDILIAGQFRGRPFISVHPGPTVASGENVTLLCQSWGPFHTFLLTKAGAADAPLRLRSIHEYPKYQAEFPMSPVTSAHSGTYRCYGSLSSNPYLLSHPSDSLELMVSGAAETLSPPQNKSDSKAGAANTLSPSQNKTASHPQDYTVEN

[4] = biological target: T4, ILT6 (UniProt Q8N6C8 24-439, limits assumed); assay: binding ELISA, column hILT6-His; negative control
T4 sequence (Q8N6C8 24-439 limits assumed): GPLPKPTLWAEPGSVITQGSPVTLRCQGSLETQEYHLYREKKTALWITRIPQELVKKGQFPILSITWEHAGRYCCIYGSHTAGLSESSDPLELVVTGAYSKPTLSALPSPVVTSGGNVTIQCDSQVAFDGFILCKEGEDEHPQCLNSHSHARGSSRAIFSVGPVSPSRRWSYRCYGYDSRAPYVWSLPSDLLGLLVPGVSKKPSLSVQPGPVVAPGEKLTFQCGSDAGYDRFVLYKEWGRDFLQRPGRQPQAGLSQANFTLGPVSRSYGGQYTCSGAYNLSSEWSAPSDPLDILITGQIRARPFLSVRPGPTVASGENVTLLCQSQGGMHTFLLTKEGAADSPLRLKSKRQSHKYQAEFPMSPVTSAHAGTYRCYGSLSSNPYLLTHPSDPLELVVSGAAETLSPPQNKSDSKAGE

[5] = biological target: T2, recombinant ILT2 (human); assay: binding ELISA, hILT2-Fc; positive control is GHI/75 by paragraph 244
[6] = biological target: T4, ILT6; assay: binding ELISA, column hILT6-His
[7] = biological target: T3, LILRA1; assay: binding ELISA, column hLILRA1-His
[8] = biological target: T1, PIRB; assay: binding ELISA, column PIRB
[9] = biological target: T2, recombinant ILT2 (human); assay: binding ELISA, hILT2-Fc
[10] = biological target: T2, recombinant ILT2 (human); assay: SPR (Biacore T200), HEK EBNA supernatants on recombinant ILT2 peptide
Method: (§1) During grafting of the 15G8 CDRs, five heavy chains and four kappa light chains were generated. These chains were designated VH1-5 and Vk1-4. By combining each heavy chain with each light chain twenty different resultant antibodies are possible. All twenty possible antibodies were transiently expressed in HEK EBNA cells, and the supernatants were tested for binding to recombinant ILT2 peptide using a Biacore T200. The chimeric 15G8 antibody was used as control.

[11] = biological target: T2, recombinant ILT2 (human); assay: SPR (Biacore T200); KD relative to Control (chimeric 15G8)
Method: as §1

[12] = biological target: T5, biotinylated recombinant human ILT2-Fc (human, UniProt Q8NHL6 24-458, limits assumed, conjugated with biotin (sites not given)); assay: flow cytometry blocking assay: ILT2-biotin binding to cells expressing HLA-G [right panel]
T5 construct: Bought (Sino Biologics); the order of the parts is therefore uncertain; also called ILT2-biotin; biotinylated ILT2; not shown: Fc portion of human IgG1
T5 sequence (Q8NHL6 24-458 limits assumed): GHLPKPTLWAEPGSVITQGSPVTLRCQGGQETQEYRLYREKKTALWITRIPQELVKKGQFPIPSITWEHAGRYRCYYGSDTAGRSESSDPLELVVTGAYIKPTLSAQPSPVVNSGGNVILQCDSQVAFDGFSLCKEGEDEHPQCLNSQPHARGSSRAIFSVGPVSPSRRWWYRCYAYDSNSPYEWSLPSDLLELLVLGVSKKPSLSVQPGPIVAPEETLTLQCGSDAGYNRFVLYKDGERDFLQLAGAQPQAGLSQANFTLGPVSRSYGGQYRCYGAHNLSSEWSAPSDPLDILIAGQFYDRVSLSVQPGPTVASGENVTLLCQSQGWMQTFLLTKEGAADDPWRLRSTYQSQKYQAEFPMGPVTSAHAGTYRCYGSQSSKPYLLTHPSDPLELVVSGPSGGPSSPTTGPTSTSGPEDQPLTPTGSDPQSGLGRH
Method: Flow cytometry blocking assay—Recombinant human ILT2 protein fused with the Fc portion of human IgG1 at the N terminal was conjugated with biotin (Innova bioscience). A total of 5×10⁵ A375/HLA-G1 cells were incubated in a volume of 100 μL in the presence of anti-ILT2 clone #1 or isotype matched control mAb and ILT2-Fc conjugated with biotin (10 μg/mL) for 30 minutes at room temperature. After several washing steps, streptavidin-PE was added at a final concentration of 0.2 μg/mL and incubated for 30 min on ice followed by FACS analysis.
The ability of the generated anti-ILT2 antibodies to block the interaction between HLA-G and ILT2 was tested using four different assays. First, a blocking flow cytometry assay was performed. HLA-G transfected A375 cells were incubated with biotinylated ILT2 in the presence of the antibodies of the present disclosure and a positive control antibody. The commercially available anti-ILT2 antibody GHI/75 (BioLegend, Cat. No. 333704) was used as the positive control. The binding of ILT2-biotin to the cells was determined using Streptavidin-PE by flow cytometry analysis (FIG. 8A). The percent of blocking was determined by normalizing to a negative control (ILT2 binding in the presence of control IgG). […] The percentage of blocking was calculated at various concentrations of antibody (FIG. 8C).

| Molecule | Kd [10] [nM] | koff [10] [s⁻¹] | kon [10] [M⁻¹ s⁻¹] | Relative KD [11] | also measured |
| --- | --- | --- | --- | --- | --- |
| Negative |  |  |  |  | ELISA (OD) [1]: 0.05 OD; ELISA (OD) [2]: 0.0575 OD; ELISA (OD) [3]: 0.13 OD; ELISA (OD) [4]: 0.071 OD |
| GHI/75 (commercial mouse anti-human ILT2 antibody, BioLegend Cat. No. 333704) |  |  |  |  | ELISA (OD) [5]: 2.45 OD |
| 15G8 (hybridoma-derived, murine) (antibody, V domains shown, also called 15G8 antibody) VH: DVQLQGSGPGLVKPSQSLSLTCSVTGYSITSGYYWNWIRQFPGNKLEWMGYISYDGSNNYNPSLKNRISITRDTSKNQFFLKLNSVTSEDTATYYCAHGYSYYYAMDCWGQGTSVTVSS VL: DIQMTQTTSSLSASLGDRVTISCRTSQDISNYLNWYQQKPDGTVKLLISYTSRLHSGVPSRFSGSGSGTDYSLTISNLEQEDIATYFCQQGNTLPTFGSGTKLEIK |  |  |  |  | ELISA (OD) [6]: 0.07 OD; binding result [6]: no binding; ELISA (OD) [7]: 0.14 OD; binding result [7]: no binding; ELISA (OD) [8]: 0.08 OD; binding result [8]: no binding; ELISA (OD) [9]: 1.11 OD |
| 17F2 (hybridoma-derived, murine) (antibody, V domains shown) VH: QVQLQQSDAELVKPGASVKISCKVSGYTFTDHTIHWMKQRPEQGLEWIGYIYPRDGSTKYNEKFKGKATLTADKSSSTAYMQLNSLTSEDSAVYFCARTWDYFDYWGQGTTLTVSS VL: DIVLTQSPASLAVSLGQRATISCRASESVDSYGNSFMHWYQQKPGQPPKLLIYRASNLESGIPARFSGSGSRTDFTLTINPVEADDVATYYCQQSNEDPYTFGGGTKLEIK |  |  |  |  | ELISA (OD) [6]: 0.06 OD; binding result [6]: no binding; ELISA (OD) [7]: 0.08 OD; binding result [7]: no binding; ELISA (OD) [8]: 0.06 OD; binding result [8]: no binding; ELISA (OD) [9]: 1.89 OD |
| 19E3 (hybridoma-derived, murine) (antibody, V domains shown) VH: QVQLQQSGAELARPGASVKLSCKASGYTFTSYGISWVKQRTGQGLEWVGEIYPGSGNSYYNEKFKGKATLTADKSSSTAYMELRSLTSEDSAVYFCARSNDGYPDYWGQGTTLTVSS VL: DIQMTQSSSYLSVSLGGRVTITCKASDHINNWLAWYQQKPGNAPRLLISGATSLETGVPSRFSGSGSGKDYTLSITSLQTEDVATYYCQQYWSTPWTFGGGTKLEIK |  |  |  |  | ELISA (OD) [6]: 0.13 OD; binding result [6]: no binding; ELISA (OD) [7]: 0.11 OD; binding result [7]: no binding; ELISA (OD) [8]: 0.14 OD; binding result [8]: no binding; ELISA (OD) [9]: 2.61 OD |
| humanized 15G8 VH3/Vk1 (antibody, IgG4, V domains shown, Humanized IgG4 (S228P, L235E), kappa; tested as supernatant of transiently transfected HEK EBNA cells) VH: DVQLQGSGPGLVKPSETLSLTCSVTGYSITSGYYWNWIRQPPGKGLEWMGYISYDGSNNYNPSLKNRITISRDTSKNQFSLKLSSVTAADTATYYCAHGYSYYYAMDAWGQGTTVTVSS VL: DIQMTQSTSSLSASVGDRVTITCRTSQDISNYLNWYQQKPGKAVKLLISYTSRLHSGVPSRFSGSGSGTDYTLTISSLQQEDFATYFCQQGNTLPTFGQGTKLEIK | 8.52 | 0.00681 | 799000 | 0.68 |  |
| humanized 15G8 VH4/Vk1 (antibody, IgG4, V domains shown, Humanized IgG4 (S228P, L235E), kappa; tested as supernatant of transiently transfected HEK EBNA cells) VH: QVQLQGSGPGLVKPSETLSLTCSVTGYSITSGYYWNWIRQPPGKGLEWMGYISYDGSNNYNPSLKNRVTISRDTSKNQFSLKLSSVTAADTATYYCAHGYSYYYAMDAWGQGTTVTVSS VL: DIQMTQSTSSLSASVGDRVTITCRTSQDISNYLNWYQQKPGKAVKLLISYTSRLHSGVPSRFSGSGSGTDYTLTISSLQQEDFATYFCQQGNTLPTFGQGTKLEIK | 8.66 | 0.00792 | 915000 | 0.69 |  |
| humanized 15G8 VH3/Vk3 (antibody, IgG4, V domains shown, Humanized IgG4 (S228P, L235E), kappa; tested as supernatant of transiently transfected HEK EBNA cells) VH: DVQLQGSGPGLVKPSETLSLTCSVTGYSITSGYYWNWIRQPPGKGLEWMGYISYDGSNNYNPSLKNRITISRDTSKNQFSLKLSSVTAADTATYYCAHGYSYYYAMDAWGQGTTVTVSS VL: DIQMTQSPSSLSASVGDRVTITCRTSQDISNYLNWYQQKPGKAVKLLISYTSRLHSGVPSRFSGSGSGTDYTLTISSLQPEDFATYYCQQGNTLPTFGQGTKLEIK | 9.03 | 0.00611 | 677000 | 0.72 |  |

More lines, main results first:

| Kd [10] [nM] | koff [10] [s⁻¹] | kon [10] [M⁻¹ s⁻¹] | Relative KD [11] | Molecule | also measured |
| --- | --- | --- | --- | --- | --- |
| 12.6 | 0.0102 | 808000 | 1 | chimeric 15G8 antibody (antibody, V domains shown, Chimeric form of murine 15G8) VH: DVQLQGSGPGLVKPSQSLSLTCSVTGYSITSGYYWNWIRQFPGNKLEWMGYISYDGSNNYNPSLKNRISITRDTSKNQFFLKLNSVTSEDTATYYCAHGYSYYYAMDCWGQGTSVTVSS VL: DIQMTQTTSSLSASLGDRVTISCRTSQDISNYLNWYQQKPDGTVKLLISYTSRLHSGVPSRFSGSGSGTDYSLTISNLEQEDIATYFCQQGNTLPTFGSGTKLEIK | IC50 (read off the curve) [12]: ~0.2 µg/mL |
| 9.51 | 0.00843 | 886000 | 0.75 | humanized 15G8 VH4/Vk3 (antibody, IgG4, V domains shown, Humanized IgG4 (S228P, L235E), kappa; tested as supernatant of transiently transfected HEK EBNA cells) VH: QVQLQGSGPGLVKPSETLSLTCSVTGYSITSGYYWNWIRQPPGKGLEWMGYISYDGSNNYNPSLKNRVTISRDTSKNQFSLKLSSVTAADTATYYCAHGYSYYYAMDAWGQGTTVTVSS VL: DIQMTQSPSSLSASVGDRVTITCRTSQDISNYLNWYQQKPGKAVKLLISYTSRLHSGVPSRFSGSGSGTDYTLTISSLQPEDFATYYCQQGNTLPTFGQGTKLEIK |  |
| 7.57 | 0.00954 | 1.26e+06 | 0.6 | humanized 15G8 VH5/Vk2 (antibody, IgG4, V domains shown, Humanized IgG4 (S228P, L235E), kappa; tested as supernatant of transiently transfected HEK EBNA cells) VH: QVQLQGSGPGLVKPSETLSLTCTVTGYSITSGYYWNWIRQPPGKGLEWIGYISYDGSNNYNPSLKNRVTISRDTSKNQFSLKLSSVTAADTATYYCAHGYSYYYAMDAWGQGTTVTVSS VL: DIQMTQSPSSLSASVGDRVTITCRTSQDISNYLNWYQQKPGKAVKLLISYTSRLHSGVPSRFSGSGSGTDYTLTISSLQPEDFATYFCQQGNTLPTFGQGTKLEIK |  |
| 8.55 | 0.00994 | 1.16e+06 | 0.68 | humanized 15G8 VH5/Vk1 (antibody, IgG4, V domains shown, Humanized IgG4 (S228P, L235E), kappa; tested as supernatant of transiently transfected HEK EBNA cells) VH: QVQLQGSGPGLVKPSETLSLTCTVTGYSITSGYYWNWIRQPPGKGLEWIGYISYDGSNNYNPSLKNRVTISRDTSKNQFSLKLSSVTAADTATYYCAHGYSYYYAMDAWGQGTTVTVSS VL: DIQMTQSTSSLSASVGDRVTITCRTSQDISNYLNWYQQKPGKAVKLLISYTSRLHSGVPSRFSGSGSGTDYTLTISSLQQEDFATYFCQQGNTLPTFGQGTKLEIK |  |
